# Laboratory results from patent US20240002531A1 (ONO PHARMACEUTICAL, published 2024).
# B1: H2Mab-214 antibody (antibody, V domains shown)
# VH: QVTLKESGPGILQPSQTLSLTCSFSGFSLSTSGMGVSWIRQPSGKGLEWLAHIFWDDDKRYNPSLKSRLTISKDTSRNKVFLKITSVDTADTATYYCARRVVATDWYFDVWGAGTTVTVSS
# VL: DIVLTQSPASLAVSLGQRATISCRASESVEYYGTTLMQWYQQKPGQPPKLLIYAASKVESGVPARFSGSGSGTDFSLNIHPVEEDDVAMYFCQQSRKVPLTFGAGTKLELKR
# notes: Mouse monoclonal from a hybridoma (immunogen HER2ec made in LN229 cells); also called antibody of the present invention
# Assays:
# [1] = biological target: T1, D607A peptide (HER2 603-622 with D607A) (human); test: SPR Biacore, mAb on chip, peptide analyte, 1:1 fit;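 further: binding measured at 25 °C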
# T1 peptide: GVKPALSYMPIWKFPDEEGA
# [2] = biological target: T2, HER2 peptide p603-622 (amino acids 603 to 622 of human HER2) (human); test: SPR Biacore, mAb on chip, peptide analyte, 1:1 fit;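 further: binding measured at 25 °C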
# T2 construct: Synthetic peptide; also called wild-type HER2 peptide
# T2 peptide: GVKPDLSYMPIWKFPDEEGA
# [3] = biological target: T3, P606A peptide (HER2 603-622 with P606A) (human); test: SPR Biacore, mAb on chip, peptide analyte, 1:1 fit;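 further: binding measured at 25 °C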
# T3 peptide: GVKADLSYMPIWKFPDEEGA
# [4] = biological target: T4, A622G peptide (HER2 603-622 with A622G) (human); test: SPR Biacore, mAb on chip, peptide analyte, 1:1 fit;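 further: binding measured at 25 °C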
# T4 peptide: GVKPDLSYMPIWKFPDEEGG
# [5] = biological target: T5, D618A peptide (HER2 603-622 with D618A) (human); test: SPR Biacore, mAb on chip, peptide analyte, 1:1 fit;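 further: binding measured at 25 °C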
# T5 peptide: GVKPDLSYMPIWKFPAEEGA
# [6] = biological target: T6, M611A peptide (HER2 603-622 with M611A) (human); test: SPR Biacore, mAb on chip, peptide analyte, 1:1 fit;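 further: binding measured at 25 °C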
# T6 peptide: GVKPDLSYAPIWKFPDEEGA
# [7] = biological target: T7, L608A peptide (HER2 603-622 with L608A) (human); test: SPR Biacore, mAb on chip, peptide analyte, 1:1 fit
# T7 peptide: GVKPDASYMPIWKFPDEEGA
# [8] = biological target: T8, E619A peptide (HER2 603-622 with E619A) (human); test: SPR Biacore, mAb on chip, peptide analyte, 1:1 fit
# T8 peptide: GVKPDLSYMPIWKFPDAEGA
# [9] = biological target: T9, HER2-W614A expressed on CHO-K1 cells (human, UniProt P04626 23-1255); test: flow cytometry on CHO-K1 cells expressing HER2-W614A
# T9 construct: also called W614A point mutant; not shown: PA tag at the N terminus; RAP tag and MAP tag at the C terminus
# [10] = biological target: T10, I613A peptide (HER2 603-622 with I613A) (human); test: SPR Biacore, mAb on chip, peptide analyte, equilibrium analysis
# T10 construct: also called 1613A
# T10 peptide: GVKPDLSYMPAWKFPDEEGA
# [11] = biological target: T11, K615A peptide (HER2 603-622 with K615A) (human); test: as above
# T11 peptide: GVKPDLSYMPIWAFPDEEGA
# [12] = biological target: T12, F616A peptide (HER2 603-622 with F616A) (human); test: as above
# T12 peptide: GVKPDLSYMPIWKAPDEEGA
# [13] = biological target: T13, W614A peptide (HER2 603-622 with W614A) (human); test: as above
# T13 peptide: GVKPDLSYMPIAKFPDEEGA
# [14] = biological target: T14, HER2 peptide p613-622 (human); test: as above
# T14 peptide: IWKFPDEEGA
# [15] = biological target: T15, HER2 peptide p614-621 (human); test: as above
# T15 peptide: WKFPDEEG
binder,measurement,setting,value
B1,Kd,[1],17.6 nM
same,koff,[1],0.00588 s⁻¹
same,kon,[1],334000 M⁻¹ s⁻¹
same,Kd,[2],22.8 nM
same,koff,[2],0.00543 s⁻¹
same,kon,[2],238000 M⁻¹ s⁻¹
same,Kd,[3],17.6 nM
same,koff,[3],0.00578 s⁻¹
same,kon,[3],329000 M⁻¹ s⁻¹
same,Kd,[4],15.5 nM
same,koff,[4],0.00567 s⁻¹
same,kon,[4],366000 M⁻¹ s⁻¹
same,Kd,[5],49.1 nM
same,koff,[5],0.0125 s⁻¹
same,kon,[5],254000 M⁻¹ s⁻¹
same,Kd,[6],34.1 nM
same,koff,[6],0.00774 s⁻¹
same,kon,[6],227000 M⁻¹ s⁻¹
same,Kd,[7],48.7 nM
same,koff,[7],0.00739 s⁻¹
same,kon,[7],152000 M⁻¹ s⁻¹
same,Kd,[8],66.2 nM
same,koff,[8],0.0111 s⁻¹
same,kon,[8],168000 M⁻¹ s⁻¹
same,binding result,[9],binds
same,Kd,[10],39300 nM
same,Kd,[11],578000 nM
same,Kd,[12],410000 nM
same,Kd,[13],1460 nM
same,Kd,[14],127000 nM
same,Kd,[15],229000 nM
